# B1: CDCA1 (55-78) long peptide (peptide)
# peptide: IVYGIRLEHFYMMPVNSEVMYPHL
# notes: Synthetic long peptide (purity >90%), pulsed onto antigen presenting cells; also called CDCA1 (55-78) LP; CDCA1 (55-78)-LP
# Assays:
# HLA-DR4 (DRB1*04:05) = target: T1, HLA-DR4 (DRB1*04:05) (human); assay: concluded from IFN-gamma ELISPOT restriction analysis (peptide-pulsed L-DR4 cells, blocking mAbs)
# T1 construct: whole, on cells; MHC class II molecule on mouse L-cell transfectants (L-DR4), donor PBMCs or DCs; also called L-DR4; L-DR0405
# Experimental: (§1) On day 5, the DCs were cultured in the presence of the recombinant CDCA1 (50 micro g/ml) and OK432. The protein-loaded mature DCs were harvested on day 7, washed and used as stimulator in IFN-gamma ELISPOT assays. To determine restriction HLA molecules involved in antigen presentation, blocking of antigen-induced IFN-gamma production was investigated by adding anti-HLA-DR mAb (L243, Biolegend), anti-HLA-DP mAb, (B7/21, abcam), anti-human HLA-DQ mAb (SPV-L3, abcam), or anti-HLA class I mAb, (W6/32, abcam). All mAbs were used at a final concentration of 5 micro g/ml. All assessments of IFN-gamma ELISPOT assays were carried out in duplicate or triplicate, and results corresponded to mean values.
# (§2) The immune responses of T-cells to PBMC, L-cells, and murine BM-DC pulsed with peptides (10 micro g/mL) or CDCA1 proteins-loaded human DCs (50 micro g/mL) were assessed by IFN-gamma ELISPOT assays (BD Biosciences, San Jose, Calif.) according to manufacturer's instructions and described previously (Zarour H M et al., Cancer Res 2000; 60:4946-52.). In briefly, peptide-pulsed PBMCs (3×10⁴/well), L-cells (5×10⁴/well), T2 cells (2×10⁴/well), C1R-A24 cells (2×10⁴/well), bone marrow-derived DCs (BM-DCs, 2×10⁴/well), or protein-loaded DCs (5×10³/well) were seeded in triplicate or duplicate in the ELISPOT plates as APCs or target cells. […] After incubation for 18 h, spot numbers were counted. […]
# HLA-DR15 (DRB1*15:02) = target: T2, HLA-DR15 (DRB1*15:02) (human); assay: concluded from IFN-gamma ELISPOT restriction analysis (peptide-pulsed L-DR15 cells, blocking mAbs)
# T2 construct: whole, on cells; MHC class II molecule on mouse L-cell transfectants (L-DR15) or donor PBMCs; also called L-DR15
# Experimental: as §1, §2
binder,measurement,setting,value
B1,binding result,HLA-DR4 (DRB1*04:05),binds
same,binding result,HLA-DR15 (DRB1*15:02),binds
